We go through two molecules from article PMC3831237.

In data set [1] the target is 2,5-DHP dioxygenase Hpo from Pseudomonas putida S16 (non-His6-tagged) (Pseudomonas putida S16). The data set is described as follows: SEC + native gel or EMSA. On the technique in general: A gel shift assay detects complexes by their altered migration in electrophoresis.
Substrate in data set [2]: O=CNC(=O)/C=C/C(=O)O
The experiment in a line: purified protein. The note with it: 20 mM sodium phosphate pH 6.7, 25 °C.

As a reminder, the stoichiometry N is a count of units in the complex or per binding partner. With “2,5-DHP dioxygenase Hpo from Pseudomonas putida S16 (non-His6-tagged) (enzyme)”, the stoichiometry N in data set [1] turned out to be 3.

B1: Nfo (Pseudomonas putida S16) (protein)
chain: MKGYNVYANGIRQHIIHFPGTGSPLLLIPGITSPAVTWGFVAERLAKYFDVHVVDVRGRGLSESGDLDYSLDAMADDLVALAQRMEGVVVLGHSMGARIAIRAARKDSQVFSRLILVDPPVSGPGRRPYPAKWSWYAESIRLAQRGCTAMEMRSYCPTWTDEQIELRAEWLHTCQYTAVKTAFDGFHTDDIHTDLAQLTLPIQLVVAGGAEVIQPDDIAEIISLAPQTTTYVVEEAGHMIPWDNLEGFITAVSNR
Broadly, the Km is the concentration of substrate that gives half-maximal velocity. By kcat is commonly meant the number of substrate molecules converted per active site and unit of time at saturation. Regarding B1, in data set [2], the Km turned out to be 5.83 ± 0.46 mM and the kcat stood at 2.4 ± 0.1 s⁻¹.
